Biological target: DLL3 (target in the Fab-Zap internalization assay) (UniProt Q9NYJ7)
Test: cell-based or functional assay

Sequence of DLL3 (target in the Fab-Zap internalization assay) (Q9NYJ7 27-618 limits assumed): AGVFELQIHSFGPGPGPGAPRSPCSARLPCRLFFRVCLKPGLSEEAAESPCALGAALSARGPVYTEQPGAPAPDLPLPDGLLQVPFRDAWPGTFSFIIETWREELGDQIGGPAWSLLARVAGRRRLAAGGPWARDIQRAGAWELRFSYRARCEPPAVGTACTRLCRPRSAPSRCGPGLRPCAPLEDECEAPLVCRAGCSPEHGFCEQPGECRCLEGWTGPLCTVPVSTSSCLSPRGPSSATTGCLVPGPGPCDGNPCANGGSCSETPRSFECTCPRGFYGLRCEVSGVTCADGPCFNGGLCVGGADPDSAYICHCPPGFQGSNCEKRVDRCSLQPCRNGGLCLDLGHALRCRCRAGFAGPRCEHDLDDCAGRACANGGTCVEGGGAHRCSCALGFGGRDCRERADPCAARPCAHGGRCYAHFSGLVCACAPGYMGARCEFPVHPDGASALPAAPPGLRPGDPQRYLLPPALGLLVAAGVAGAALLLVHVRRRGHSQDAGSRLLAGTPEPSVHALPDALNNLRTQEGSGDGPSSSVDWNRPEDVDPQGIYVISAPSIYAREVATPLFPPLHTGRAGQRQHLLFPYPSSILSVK

Question: Which Percent Max Killing (Fab-Zap internalization assay, 10 ug/ml) does the source give for “Rovalpituzumab Tesirine (SC16LD6.5) (antibody)” here?
Answer: Its Percent Max Killing (Fab-Zap internalization assay, 10 ug/ml) is 96%.
